Assay results taken from the supplement of paper PMC9732359.
± gives the uncertainty stated by the source.

Experiment: protein stability index of a GFP-peptide fusion (yeast GPS) (PSI 1-4); higher = more stable; sorted into four equal gates, so the index is relative within each strain
Details: ubr1∆
Outline: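 Plasmids isolated from each sorting gate were PCR-amplified and Illumina-sequenced, and barcodes assigned the reads to strains. The gates, four of equal size, were set by GFP/Cherry fluorescence ratio on mid-log cultures in leucine-free medium. These cultures were yeast carrying a pooled library of tiled 17-residue yeast protein peptides fused downstream of GFP on a plasmid that also expresses Cherry. The protein stability index is the sum of every gate's read frequency times its gate number.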

Sequence | protein stability index
IQQLISQFLKRVHANLQ [SNF11] | 1.54 ± 0.038
IQRTTESLILKWDNQSA [RGR1] | 2.94 ± 0.05
IQYVTYLLTQQQIWKSP [SOH1] | 2.09 ± 0.047
IRAELLNDRKVLFAAYK [RPB11] | 2.23 ± 0.061
IRGILMASGSTTFTKVA [PRP8] | 2.15 ± 0.088
IRIYFTEKDDNKTNNED [NUT1] | 2.87 ± 0.074
IRKGANDGEVYQKIFKP [PRE9] | 1.83 ± 0.059
IRKGPAPLNLEIPAYEF [RIP1] | 2.73 ± 0.062
IRKLTLRDTFIELDQVL [RPO21] | 2.23 ± 0.11
IRKYGLNICRQCFREKA [RPS29A] | 1.73 ± 0.065
IRLANESSELNKDSIEE [CSN12] | 3.37 ± 0.083
IRLSKILEDDFAVALKN [CDC53] | 3.04 ± 0.08
IRPTELRLPFSAAMSID [PRP8] | 2.24 ± 0.037
IRSSRSRGIVIGSGAMS [RPP1] | 2.46 ± 0.073
ISHDDLQAVAVAVSTKK [FAS2] | 1.32 ± 0.23
ISHIEKRIESLQKDLQR [SMC1] | 1.85 ± 0.066
ISICMILCGIQEYLNPV [YDL116W/NUP84] | 1.87 ± 0.14
ISKKIIGMSLLMRTFLY [SIR3] | 1.75 ± 0.077
ISKSLTFSQESGLMVIL [RRI2] | 2.27 ± 0.072
ISLPKGKGIKLSIAEER [RPS4A] | 2.47 ± 0.077
ISNYNTKYTDDMATGSN [SRB8] | 2.94 ± 0.085
ISPKGGRRISENGQRDL [RPS19A] | 2.86 ± 0.11
ISPKIWCAGAGTAADTE [PUP1] | 2.24 ± 0.08
ISQKLHDSILHSRILPK [RRP43] | 2.8 ± 0.038
ISQLYSDAVMAEHSQNK [YJL041W/NSP1] | 2.81 ± 0.088
ISSSTQCLRFLKETVIP [POP6] | 2.27 ± 0.073

Sequence | protein stability index
ISTYISTDELVGSPLTV [POP8] | 2.2 ± 0.081
ISVIETIRVVTENKIFV [RPN5] | 2.03 ± 0.093
ISYKKGAASNRTKFVRS [RPL36A] | 3.26 ± 0.22
ITATLVGTVRCEEEKKT [CSL4] | 1.58 ± 0.079
ITDKGTVDGRLYQLFKT [YJL039C/NUP192] | 3.46 ± 0.094
ITDKTIESIVNLAPKLR [GRR1] | 2.76 ± 0.037
ITHPGKMELVYVSDSDD [SIR4] | 3.25 ± 0.073
ITHQLNNKFANKIIPNV [RPC25] | 3.01 ± 0.082
ITKFALFAESHDVLQKL [YML103C/NUP188] | 2.45 ± 0.075
ITLVEPEILRFKVYEPL [RPS16A] | 2.75 ± 0.074
ITNTDETITTKRVPNPN [SWP82] | 3.21 ± 0.082
ITSFDQDVDDAHAIDQM [POP8] | 1.08 ± 0.11
ITSFGFGQKGGQAIVVH [FAS2] | 1.69 ± 0.046
ITSINVENDTFIERNFT [FAS2] | 3.19 ± 0.05
ITVTAKQQPTMQANKLD [SWI3] | 3.01 ± 0.055
ITYGIIKVPTYIRKLIS [SRB8] | 1.36 ± 0.085
IVEEDLEPFEASKETAE [FAS2] | 3.25 ± 0.089
IVEINNVSNTFNKTTNI [YJL041W/NSP1] | 2.86 ± 0.038
IVFDNTDKSNSPIGFTN [SMC2] | 2.96 ± 0.068
IVFHNEFSEHTFVERLP [DIS3] | 2.68 ± 0.053
IVNNDLPTTVVSNPGDN [MED2] | 3.02 ± 0.033
IVPSMTHLEIEPFTILG [RET1] | 2.27 ± 0.035
IVRPAKGVATTREKVLE [RRP46] | 3.09 ± 0.082
IVTALLESDVNIALVSK [SRP54] | 3.35 ± 0.12
IWVGEWKEVLAHNPELE [RPO31] | 2.74 ± 0.053
IYAKYGAKGSTLIVVPF [FAS2] | 2.13 ± 0.05
